# Results taken from the supplement of paper PMC7877785.
# ± gives the uncertainty stated by the source.
# Assay: self-splicing fitness, log relative to wild type (ln ratio); higher = more splicing; Tetrahymena group I intron in knt gene, E. coli kanamycin selection, DiMSum; sequences stand for … in CUCUCU…GGAGGGAAAAGUUAUCAGGCAUGCACCUGGUAGCUAGUCUUUAAACCAAUAGAUUGCAUCGGUUUAAAAGGCAAGACCGUCAAAUUGCGGGAAAGGGGUCAACAGCCGUUCAGUACCAAGUCUCAGGGGAAACUUUGAGAUGGCCUUGCAAAGGGUAUGGUAAUAAGCUGACGGACAUGGUCCUAACCACGCAGCCAAGUCCUAAGUCAACAGAUCUUCUGUUGAUAUGGAUGCAGUUCACAGACUAAAUGUCGGUCGGGGAAGAUGUAUUCUUCUCAUAAGAUAUAGUCGGACCUCUCCUUAAUGGGAGCUAGCGGAUGAAGUGAUGCAACACUGGAGCCGCUGGGAACUAAUUUGUAUGCGAAAGUAUAUUGAUUAGUUUUGGAGUACUCGUGGUCG
# Summary of the method: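 A randomised library covering all eight P1ex-region intron nucleotides was built with the intron in the knt kanamycin-resistance gene on pET-22b(+) and held in E. coli BL21(DE3). Cells were grown overnight at 37°C or 30°C on LB agar, with or without 25 μg/mL kanamycin, plus 100 μg/mL carbenicillin, 50 μM IPTG and 0.2% rhamnose, and pooled colonies were amplicon-sequenced on an Illumina HiSeq 2500. DiMSum fitness is the error-weighted combination of wild-type-normalised replicate fold changes, kanamycin versus none.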
Sequence,self-splicing fitness (ln) (30 °C),self-splicing fitness (ln) (37 °C)
AACAAGCAAUAUUACGGGUU,-2.34 ± 0.11,-2.91 ± 0.16
AACAAGCAAUAUUACGGUAA,-1.83 ± 0.1,-1.04 ± 0.096
AACAAGCAAUAUUACGGUAU,-1.61 ± 0.075,-1.16 ± 0.098
AACAAGCAAUAUUACGGUCC,-1.36 ± 0.063,-0.282 ± 0.072
AACAAGCAAUAUUACGUACC,-1.03 ± 0.083,0.125 ± 0.13
AACAAGCAAUAUUACGUCUU,-0.312 ± 0.057,0.0818 ± 0.077
AACAAGCAAUAUUACGUGCG,-1.17 ± 0.05,-0.476 ± 0.064
AACAAGCAAUAUUACGUGGA,-2.59 ± 0.11,-1.51 ± 0.094
AACAAGCAAUAUUACGUGUG,-1.69 ± 0.043,-0.657 ± 0.05
AACCAGCAAUAUUACGAAAG,-3.21 ± 0.16,-1.99 ± 0.19
AACCAGCAAUAUUACGAACU,-0.369 ± 0.079,0.35 ± 0.1
AACCAGCAAUAUUACGAAUA,-2.32 ± 0.13,-1.71 ± 0.097
AACCAGCAAUAUUACGACGC,-0.537 ± 0.082,-0.0547 ± 0.098
AACCAGCAAUAUUACGAGGA,-2.25 ± 0.13,-1.51 ± 0.11
AACCAGCAAUAUUACGCAGG,-4.46 ± 0.2,-2.28 ± 0.14
AACCAGCAAUAUUACGCCAA,-2.55 ± 0.14,-1.67 ± 0.16
AACCAGCAAUAUUACGCUCG,-0.795 ± 0.075,0.274 ± 0.097
AACCAGCAAUAUUACGGACC,0.38 ± 0.1,-0.273 ± 0.11
AACCAGCAAUAUUACGGCCC,0.0145 ± 0.12,0.0337 ± 0.099
AACCAGCAAUAUUACGGCGC,-0.046 ± 0.068,-0.103 ± 0.086
AACCAGCAAUAUUACGGCUA,-0.197 ± 0.048,0.0992 ± 0.063
AACCAGCAAUAUUACGGGAA,-1.76 ± 0.073,-1.01 ± 0.065
AACCAGCAAUAUUACGGGGC,-3.59 ± 0.16,-2.64 ± 0.16
AACCAGCAAUAUUACGGGUC,-3.62 ± 0.13,-2.68 ± 0.15
AACCAGCAAUAUUACGGUUU,-3.26 ± 0.12,-2.96 ± 0.17
AACCAGCAAUAUUACGUAUC,-2.57 ± 0.097,-1.39 ± 0.1

Sequence,self-splicing fitness (ln) (30 °C),self-splicing fitness (ln) (37 °C)
AACCAGCAAUAUUACGUCGC,-2.34 ± 0.077,-0.689 ± 0.085
AACCAGCAAUAUUACGUGCC,-1.44 ± 0.063,-0.956 ± 0.079
AACCAGCAAUAUUACGUGCG,-0.832 ± 0.053,-0.365 ± 0.064
AACCAGCAAUAUUACGUUAG,-3.68 ± 0.11,-2.44 ± 0.11
AACCAGCAAUAUUACGUUUU,-2.11 ± 0.057,-1.27 ± 0.065
AACGAGCAAUAUUACGACAG,,-2.37 ± 0.28
AACGAGCAAUAUUACGACCU,-1.02 ± 0.22,-0.178 ± 0.2
AACGAGCAAUAUUACGACUU,-0.000737 ± 0.11,-0.7 ± 0.12
AACGAGCAAUAUUACGAGAG,-3.41 ± 0.15,-1.98 ± 0.16
AACGAGCAAUAUUACGAGCA,-2.69 ± 0.18,-1.97 ± 0.22
AACGAGCAAUAUUACGAGCG,-2.76 ± 0.19,-2.55 ± 0.2
AACGAGCAAUAUUACGAGGC,-2.92 ± 0.29,-2.97 ± 0.48
AACGAGCAAUAUUACGAGUG,-1.64 ± 0.097,-0.602 ± 0.12
AACGAGCAAUAUUACGAUUA,-1.89 ± 0.16,-1.02 ± 0.16
AACGAGCAAUAUUACGCGAG,-2.75 ± 0.24,-2.61 ± 0.25
AACGAGCAAUAUUACGCGUG,-1.89 ± 0.094,-1.12 ± 0.099
AACGAGCAAUAUUACGCUGC,-3.01 ± 0.26,-3.06 ± 0.35
AACGAGCAAUAUUACGGAGA,-3.61 ± 0.26,-2.8 ± 0.28
AACGAGCAAUAUUACGGGCU,-3.63 ± 0.23,-2.49 ± 0.22
AACGAGCAAUAUUACGGGUC,-3.17 ± 0.22,-1.65 ± 0.2
AACGAGCAAUAUUACGGUAU,-4.43 ± 0.22,-1.85 ± 0.12
AACGAGCAAUAUUACGGUUG,-3.98 ± 0.15,-2.37 ± 0.13
AACGAGCAAUAUUACGUACC,-2.91 ± 0.23,-1.9 ± 0.2
AACGAGCAAUAUUACGUAGG,-3.93 ± 0.21,-2.49 ± 0.18
AACGAGCAAUAUUACGUAUC,-3.69 ± 0.4,-3.55 ± 0.46
AACGAGCAAUAUUACGUCAG,-3.08 ± 0.29,-2.97 ± 0.34

Sequence,self-splicing fitness (ln) (30 °C),self-splicing fitness (ln) (37 °C)
AACGAGCAAUAUUACGUUAC,-3.45 ± 0.29,-0.155 ± 0.15
AACGAGCAAUAUUACGUUGA,-3.48 ± 0.21,-3.32 ± 0.22
AACGAGCAAUAUUACGUUUG,-3.6 ± 0.2,-2.45 ± 0.28
AACUAGCAAUAUUACGACAG,-1.7 ± 0.14,-0.514 ± 0.13
AACUAGCAAUAUUACGACCC,,-0.568 ± 0.41
AACUAGCAAUAUUACGAGCU,-1.5 ± 0.095,-0.511 ± 0.11
AACUAGCAAUAUUACGAGUA,-0.62 ± 0.07,-0.322 ± 0.083
AACUAGCAAUAUUACGAUAC,-3.15 ± 0.23,-1.24 ± 0.34
AACUAGCAAUAUUACGAUUC,-1.81 ± 0.094,-0.882 ± 0.11
AACUAGCAAUAUUACGCCGC,-2.1 ± 0.23,
AACUAGCAAUAUUACGCGCG,-0.639 ± 0.082,-0.378 ± 0.12
AACUAGCAAUAUUACGCGGU,-4.59 ± 0.29,-0.982 ± 0.17
AACUAGCAAUAUUACGCUAC,-3.46 ± 0.22,-1.34 ± 0.14
AACUAGCAAUAUUACGCUCG,-0.797 ± 0.1,-0.51 ± 0.13
AACUAGCAAUAUUACGGCGC,-0.8 ± 0.13,-0.34 ± 0.16
AACUAGCAAUAUUACGGCUA,-1.08 ± 0.11,-1.22 ± 0.11
AACUAGCAAUAUUACGGCUU,0.0162 ± 0.065,-0.0298 ± 0.091
AACUAGCAAUAUUACGGGUG,-0.377 ± 0.049,-0.0736 ± 0.07
AACUAGCAAUAUUACGGUUG,-1.36 ± 0.1,-0.299 ± 0.11
AACUAGCAAUAUUACGUACG,-1.15 ± 0.079,-0.237 ± 0.096
AACUAGCAAUAUUACGUAGU,-2.24 ± 0.084,-1.39 ± 0.12
AACUAGCAAUAUUACGUAUA,-2.05 ± 0.11,-0.938 ± 0.12
AACUAGCAAUAUUACGUCAA,-2.66 ± 0.18,-2.13 ± 0.15
AACUAGCAAUAUUACGUCUA,-0.702 ± 0.097,-0.347 ± 0.1
AACUAGCAAUAUUACGUGUA,-2.2 ± 0.09,-0.888 ± 0.09
